Laboratory results: paper PMC9303389, “On the stability of stalled RNA polymerase and its removal by RapA” (Nucleic Acids Research, 2022)

Substrate: Nc1ncnc2c1ncn2[C@@H]1O[C@H](COP(=O)(O)OP(=O)(O)OP(=O)(O)O)[C@@H](O)[C@H]1O
Experiment: single-molecule magnetic trapping, stalled RNAP dissociation lifetime versus [ATP]
Type: biochemical, Escherichia coli
Details: saturating RapA, RNAP stalled at +20 on positively supercoiled DNA, 0.3 pN, 200 μM GTP and UTP, 8 mM MgCl2, pH 8.0, 34°C, kcat is RNAP dissociation rate at saturating RapA and ATP, not ATP hydrolysis

B1: RapA-RNAP complex (Escherichia coli K-12) (protein)
chain: PFTLGQRWISDTESELGLGTVVAVDARTVTLLFPSTGENRLYARSDSPVTRVMFNPGDTITSHDGWQMQVEEVKEENGLLTYIGTRLDTEESGVALREVFLDSKLVFSKPQDRLFAGQIDRMDRFALRYRARKYSSEQFRMPYSGLRGQRTSLIPHQLNIAHDVGRRHAPRVLLADEVGLGKTIEAGMILHQQLLSGAAERVLIIVPETLQHQWLVEMLRRFNLRFALFDDERYAEAQHDAYNPFDTEQLVICSLDFARRSKQRLEHLCEAEWDLLVVDEAHHLVWSEDAPSREYQAIEQLAEHVPGVLLLTATPEQLGMESHFARLRLLDPNRFHDFAQFVEEQKNYRPVADAVAMLLAGNKLSNDELNMLGEMIGEQDIEPLLQAANSDSEDAQSARQELVSMLMDRHGTSRVLFRNTRNGVKGFPKRELHTIKLPLPTQYQTAIKVSGIMGARKSAEDRARDMLYPERIYQEFEGDNATWWNFDPRVEWLMGYLTSHRSQKVLVICAKAATALQLEQVLREREGIRAAVFHEGMSIIERDRAAAWFAEEDTGAQVLLCSEIGSEGRNFQFASHMVMFDLPFNPDLLEQRIGRLDRIGQAHDIQIHVPYLEKTAQSVLVRWYHEGLDAFEHTCPTGRTIYDSVYNDLINYLASPDQTEGFDDLIKNCREQHEALKAQLEQGRDRLLEIHSNGGEKAQALAESIEEQDDDTNLIAFAMNLFDIIGINQDDRGDNMIVLTPSDHMLVPDFPGLSEDGITITFDREVALAREDAQFITWEHPLIRNGLDLILSGDTGSSTISLLKNKALPVGTLLVELIYVVEAQAPKQLQLNRFLPPTPVRMLLDKNGNNLAAQVEFETFNRQLNAVNRHTGSKLVNAVQQDVHAILQLGEAQIEKSARALIDAARNEADEKLSAELSRLEALRAVNPNIRDDELTAIESNRQQVMESLDQAGWRLDALRLIVVTHQ
notes: full-length RapA, N-terminal His6 tag (pQE80L, expressed in BL21(DE3)), 110 kDa; RNAP core saturated with sigma70 (rpoD) for initiation, then stalled as elongation complex on DNA; with DNA-directed RNA polymerase subunit alpha; DNA-directed RNA polymerase subunit beta; DNA-directed RNA polymerase subunit beta'; DNA-directed RNA polymerase subunit omega
Km: 160 ± 35 µM | kcat: 1.1 × 10^–3 ± 0.5 × 10^–5 s^–1
